Residue numbers refer to the chain shown, from its start.
B1: COH2-BM wild-type probe (dsDNA)
DNA 1: TTCATCTGCCGAAATGTGGACGCTGACTCGGTATGCATTGCACCATCTC
DNA 2: GAGATGGTGCAATGCATACCGAGTCAGCGTCCACATTTCGGCAGATGAA
B2: 7A (dsDNA)
DNA 1: B1 DNA 1 with G30A
DNA 2: B1 DNA 2 with C20T

Assays:
COH2-DBD [1] = target: T1, COH2-DBD (Metarhizium robertsii, UniProt E9F6D9 1-100); assay: EMSA; LightShift Chemiluminescent EMSA Kit; competitor up to 300-fold excess; buffer, salt, pH and temperature not stated; details: protein: recombinant; tags: His (pET28a); chain copies: 2; label: biotin on one strand (Bio-probe); unlabeled as Cold-probe
COH2-DBD [2] = target: T1, COH2-DBD; assay: competition; unlabeled mutant, 300-fold excess; almost completely abolished shift; LightShift Chemiluminescent EMSA Kit; competitor up to 300-fold excess; buffer, salt, pH and temperature not stated; details: protein: recombinant; tags: His (pET28a); chain copies: 2

Binder	binding result (COH2-DBD [1])	binding result (COH2-DBD [2])
B1	binds	
B2		binds

— paper PMC8366996, “A novel cascade allows Metarhizium robertsii to distinguish cuticle and hemocoel microenvironments during infection of insects”
